Results on eleven molecules are retold here after publication PMC11334520, “In vitro higher-order oligomeric assembly of the respiratory syncytial virus M2-1 protein with longer RNAs”.

Holding throughout (settings): protein: recombinant; tags: N-terminal His6-GFP, cleaved with TEV; chain copies: 4
Series [1] deals with T1, M2-1 (human respiratory syncytial virus …, UniProt P04545 1-194).
T1 sequence: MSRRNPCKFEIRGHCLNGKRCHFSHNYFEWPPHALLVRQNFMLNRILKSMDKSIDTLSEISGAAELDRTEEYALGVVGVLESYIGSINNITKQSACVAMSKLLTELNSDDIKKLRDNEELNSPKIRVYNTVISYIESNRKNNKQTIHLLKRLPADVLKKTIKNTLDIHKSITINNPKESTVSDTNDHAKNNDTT
In words: SEC; excess RNA; EMSA: 20 mM HEPES pH 7.5, 200 mM NaCl, 2 mM TCEP, 5% glycerol, room temperature 1 h, 4% native PAGE, SYBR Gold; SEC: Superdex 200 Increase 10/300, buffer not given. A general note: Size exclusion chromatography separates by hydrodynamic size, large species first.

Series [2] concerns the target T1, M2-1. The experiment in a line: EMSA; 0.5 uM RNA; Hill 0.95; EMSA: 20 mM HEPES pH 7.5, 200 mM NaCl, 2 mM TCEP, 5% glycerol, room temperature 1 h, 4% native PAGE, SYBR Gold; SEC: Superdex 200 Increase 10/300, buffer not given.
The target of series [3] is T1, M2-1. In words: EMSA; 0.5 uM RNA; Hill 5.17; EMSA: 20 mM HEPES pH 7.5, 200 mM NaCl, 2 mM TCEP, 5% glycerol, room temperature 1 h, 4% native PAGE, SYBR Gold; SEC: Superdex 200 Increase 10/300, buffer not given. (A gel shift assay detects complexes by their altered migration in electrophoresis.)
Series [4] concerns the target T1, M2-1. In words: EMSA; 0.5 uM RNA; Hill 0.83; EMSA: 20 mM HEPES pH 7.5, 200 mM NaCl, 2 mM TCEP, 5% glycerol, room temperature 1 h, 4% native PAGE, SYBR Gold; SEC: Superdex 200 Increase 10/300, buffer not given.
The target in series [5] is T1, M2-1. In words: EMSA; 0.5 uM RNA; Hill 8.10; EMSA: 20 mM HEPES pH 7.5, 200 mM NaCl, 2 mM TCEP, 5% glycerol, room temperature 1 h, 4% native PAGE, SYBR Gold; SEC: Superdex 200 Increase 10/300, buffer not given.

Regarding UUUUUUUUUUUUUUUUUUUUU (ssRNA) [Poly21U], the binding result in the series with M2-1 [1] is “binds”. The term Kd denotes the free concentration of one partner at which half of the binding sites on the other are occupied at equilibrium, for simple one-to-one binding. Regarding AAAAAAAAAAAAAA (ssRNA) [Poly14A], the Kd with M2-1 [2] was found to be 580 nM.

For the molecule CCCCCCCCCCCCCCCC (ssRNA) [Poly16C], in the series with M2-1 [1], the binding result is recorded as “no binding”. On to AAAAAAAAAAAAAAAAAAA (ssRNA) [Poly19A], for which, in the series with M2-1 [3], the Kd was 2720 nM. In the case of UUUUUUUUUUUUUUUUUUUUUUUUUUUU (ssRNA) [Poly28U], in the series with M2-1 [1], the binding result is on record as “binds”. The same measure, in the same setting: under AGUUAAUUAAAAAUAG (ssRNA) [SH16(+)] stands “binds”. With AAAAAAAAA (ssRNA) [Poly9A], the Kd with M2-1 [4] was found to be 1940 nM. Consider UUUUUUUUUUUUUUUU (ssRNA) [Poly16U], for which the binding result with M2-1 [1] is “no binding”. Consider AAAAAAAAAAAAAAAAAAAAAAAA (ssRNA) [Poly24A], for which the Kd with M2-1 [5] was 4440 nM. On to AAAAAAAAAAAAAAAA (ssRNA) [Poly16A], for which the binding result with M2-1 [1] is given as “binds”. On to CUAUUUUUAAUUAACU (ssRNA) [SH16(-)], for which, in the series with M2-1 [1], the binding result is recorded as “no binding”.
